According to patent US20050008648A1:

Molecular target: CD33 (UniProt P20138)
Assay: cell-based or functional assay

Chain of HuM195-dCK conjugate (B2R8V6 whole entry): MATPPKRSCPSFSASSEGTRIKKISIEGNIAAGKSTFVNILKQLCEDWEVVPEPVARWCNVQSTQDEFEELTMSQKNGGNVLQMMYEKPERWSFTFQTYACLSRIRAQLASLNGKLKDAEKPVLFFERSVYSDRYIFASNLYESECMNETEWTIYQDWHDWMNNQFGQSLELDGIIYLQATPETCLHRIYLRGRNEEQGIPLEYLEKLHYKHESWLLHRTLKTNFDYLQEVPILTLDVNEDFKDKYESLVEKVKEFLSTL
Chain of CD33 (P20138 18-364 limits assumed): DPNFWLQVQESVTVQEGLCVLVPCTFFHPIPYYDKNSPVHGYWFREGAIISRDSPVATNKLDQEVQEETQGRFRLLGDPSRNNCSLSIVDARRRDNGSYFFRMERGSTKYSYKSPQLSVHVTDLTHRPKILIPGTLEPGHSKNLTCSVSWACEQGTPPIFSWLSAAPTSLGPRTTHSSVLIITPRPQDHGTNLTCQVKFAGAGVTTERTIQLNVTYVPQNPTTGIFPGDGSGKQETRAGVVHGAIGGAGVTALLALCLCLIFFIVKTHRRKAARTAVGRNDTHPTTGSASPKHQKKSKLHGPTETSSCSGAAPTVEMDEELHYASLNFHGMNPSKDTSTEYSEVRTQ

- apoptosis assay on NB4 cells, conjugate with AraC 250 nM: 65%
Substance: HuM195-dCK conjugate
- cell death of HL60 cells (Annexin V and propidium iodide staining), conjugate in combination with AraC 1 µM: 70%
